Patent publication US20030082668

Assays:
[1] = system: T1, Nma-VGAK(Ac)RHSK(Dnp)-NH2
T1 sequence: VGAKRHSK

Boc-Val-Leu-(Ac)Lys-MCA = system: T2, Boc-Val-Leu-(Ac)Lys-MCA
T2 sequence: VLK

Boc-Val-Leu-Lys-MCA = system: T3, Boc-Val-Leu-Lys-MCA
T3 sequence: VLK

[2] = target: T4, Nma-VGAK(Ac)RHSK(Dnp)-NH2
T4 chain: VGAKRHSK

| Molecule | peptide cleavage (fluorescence intensity) [1] | peptide cleavage activity (fluorescence intensity of released AMC) (Boc-Val-Leu-(Ac)Lys-MCA) | peptide cleavage activity (fluorescence intensity of released AMC) (Boc-Val-Leu-Lys-MCA) | NAD-dependent deacetylase activity (fluorescence intensity, lysylendopeptidase-coupled assay) [2] | deacetylase activity (fluorescence intensity, lysylendopeptidase-coupled assay) [2] |
| --- | --- | --- | --- | --- | --- |
| lysylendopeptidase | In the absence of recombinant SIRT1, the fluorescence intensity did not increase, namely, the fluorescent substrate was not cleaved off by LEP at all. | did not cleave Boc-Val-Leu-(Ac)Lys-MCA | digested Boc-Val-Leu-Lys-MCA |  |  |
| plasmin |  | did not cleave Boc-Val-Leu-(Ac)Lys-MCA | digested Boc-Val-Leu-Lys-MCA |  |  |
| recombinant SIRT1 (GST fused to the amino terminal end) (protein) MADEAALALQPGGSPSAAGADREAASSPAGEPLRKRPRRDGPGLERSPGEPGGAAPEREVPAAARGCPGAAAAALWREAEAEAAAAGGEQEAQATAAAGEGDNGPGLQGPSREPPLADNLYDEDDDDEGEEEEEAAAAAIGYRDNLLFGDEIITNGFHSCESDEEDRASHASSSDWTPRPRIGPYTFVQQHLMIGTDPRTILKDLLPETIPPPELDDMTLWQIVINILSEPPKRKKRKDINTIEDAVKLLQECKKIIVLTGAGVSVSCGIPDFRSRDGIYARLAVDFPDLPDPQAMFDIEYFRKDPRPFFKFAKEIYPGQFQPSLCHKFIALSDKEGKLLRNYTQNIDTLEQVAGIQRIIQCHGSFATASCLICKYKVDCEAVRGDIFNQVVPRCPRCPADEPLAIMKPEIVFFGENLPEQFHRAMKYDKDEVDLLIVIGSSLKVRPVALIPSSIPHEVPQILINREPLPHLHFDVELLGDCDVIINELCHRLGGEYAKLCCNPVKLSEITEKPPRTQKELAYLSELPPTPLHVSEDSSSPERTSPPDSSVIVTLLDQAAKSNDDLDVSESKGCMEEKPQEVQTSRNVESIAEQMENPDLKNVGSSTGEKNERTSVAGTVRKCWPNRVAKEQISRRLDGNQYLFLPPNRYIFHGAEVYSDSEDDVLSSSSCGSNSDSGTCQSPSLEEPMEDESEIEEFYNGLEDEPDVPERAGGAGFGTDGDDQEAINEAISVKQEVTDMNYPSNKS |  |  |  | the fluorescence intensity increased in an NAD concentration-dependent fashion. In the absence of NAD, regardless of the presence of the recombinant SIRT1, the fluorescence intensity did not increase | the fluorescence intensity increased was proportional to the recombinant SIRT1 concentration |
